Data: publication PMC4822050, “Hemi-methylated DNA opens a closed conformation of UHRF1 to facilitate its histone recognition” (Nature Communications, 2016)

Legend:
[1] = target: T1, SRA-Spacer (human) (UniProt Q96T88); assay: FP; details: DNA length series; 5-methyl-dC (hemi-methylated CpG); ITC: 10 mM HEPES pH 8.0, 100 mM NaCl, 18 C; EMSA: 20 mM HEPES pH 7.5, 100 mM NaCl, 8% glycerol, 1 mM DTT, on ice; pull-down: 20 mM HEPES-NaOH pH 8.0, 100 mM …
T1 sequence: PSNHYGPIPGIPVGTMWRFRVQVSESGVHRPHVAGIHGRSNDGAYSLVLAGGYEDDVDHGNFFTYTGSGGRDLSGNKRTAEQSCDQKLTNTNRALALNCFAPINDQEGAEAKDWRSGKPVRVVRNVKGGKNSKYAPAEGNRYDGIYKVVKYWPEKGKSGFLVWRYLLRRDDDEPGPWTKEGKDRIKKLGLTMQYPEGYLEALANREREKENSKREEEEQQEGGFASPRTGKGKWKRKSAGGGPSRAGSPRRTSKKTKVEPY

[2] = target: T2, SRA (human) (UniProt Q96T88); assay: FP; details: DNA length series; 5-methyl-dC (hemi-methylated CpG); ITC: 10 mM HEPES pH 8.0, 100 mM NaCl, 18 C; EMSA: 20 mM HEPES pH 7.5, 100 mM NaCl, 8% glycerol, 1 mM DTT, on ice; pull-down: 20 mM HEPES-NaOH pH 8.0, 100 mM …
T2 sequence: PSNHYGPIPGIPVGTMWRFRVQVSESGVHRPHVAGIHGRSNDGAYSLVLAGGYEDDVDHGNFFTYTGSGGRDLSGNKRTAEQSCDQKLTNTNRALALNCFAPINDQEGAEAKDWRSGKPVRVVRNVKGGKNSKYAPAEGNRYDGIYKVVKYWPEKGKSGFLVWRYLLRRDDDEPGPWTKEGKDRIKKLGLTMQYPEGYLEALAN

[3] = target: UHRF1 TTD, 134-285 (UniProt Q96T88); assay: ITC; details: reference: unmodified Spacer642–664 peptide; sites S651
[4] = target: PHD-SRA of UHRF1 (human); assay: ITC; 0.05 mM protein in the cell, 0.5 mM protein or peptide in the syringe, iTC200, 18 °C, 10 mM HEPES pH 8.0, 100 mM NaCl

Chain of UHRF1 Spacer, 642-664 (Q96T88 134-285, change not shown): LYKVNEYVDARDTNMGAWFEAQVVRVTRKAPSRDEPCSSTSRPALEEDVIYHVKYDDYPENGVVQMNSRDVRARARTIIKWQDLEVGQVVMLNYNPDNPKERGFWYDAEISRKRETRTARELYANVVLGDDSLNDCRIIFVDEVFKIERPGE

binding against the reference [3]	fold decrease in binding affinity against the PHD alone [4]	Substance	Kd [1]	Kd [2]
–	–	FAM-16bp-HM-DNA	0.39 µM	29.4 µM
–	–	FAM-20bp-HM-DNA	0.4 µM	9.59 µM
weaker	–	UHRF1 Spacer, 642-664 (from UniProt Q96T88) pS651 Spacer642–664 peptide	–	–
–	8 fold	H3 peptide (1–17) (from UniProt P68431 2-18)	–	–
